This passage reports Km results from paper PMC2767407.

Substrate in this data set: CN(C)C(=N)NCCC[C@H](N)C(=O)O
Put plainly: enzyme kinetics of refolded recombinant enzyme. In kind it is biochemical, Homo sapiens. The settings on record: authors' own initial, unpublished results; assay conditions not told.

B1: recombinant human DDAH-2 (Homo sapiens) (protein)
chain: MGTPGEGLGRCSHALIRGVPESLASGEGAGAGLPALDLAKAQREHGVLGGKLRQRLGLQLLELPPEESLPLGPLLGDTAVIQGDTALITRPWSPARRPEVDGVRKALQDLGLRIVEIGDENATLDGTDVLFTGREFFVGLSKWTNHRGAEIVADTFRDFAVSTVPVSGPSHLRGLCGMGGPRTVVAGSSDAAQKAVRAMAVLTDHPYASLTLPDDAAADCLFLRPGLPGVPPFLLHRGGGDLPNSQEALQKLSDVTLVPVSCSELEKAGAGLSSLCLVLSTRPHS
In general, Km refers to the substrate concentration at which the rate is half of its maximum. Turning to B1, the Km was 16 µM.
